Experimental data from patent publication US20220324955A1.

Target: human neonatal Fc-receptor (FcRn) (human) (UniProt P55899)
Assay: FcRn affinity column chromatography

human neonatal Fc-receptor (FcRn) (human), sequence (P55899 24-297 limits assumed, chain 1 of 2): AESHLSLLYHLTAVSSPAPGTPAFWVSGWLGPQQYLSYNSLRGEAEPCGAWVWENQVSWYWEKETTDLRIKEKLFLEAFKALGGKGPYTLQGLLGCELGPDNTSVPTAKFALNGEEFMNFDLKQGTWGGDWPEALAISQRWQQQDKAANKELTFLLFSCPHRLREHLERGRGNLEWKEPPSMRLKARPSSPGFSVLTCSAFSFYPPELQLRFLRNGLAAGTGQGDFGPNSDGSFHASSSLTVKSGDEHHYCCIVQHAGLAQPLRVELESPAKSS
human neonatal Fc-receptor (FcRn) (human), sequence (P61769 21-119 limits assumed, chain 2 of 2, further chain): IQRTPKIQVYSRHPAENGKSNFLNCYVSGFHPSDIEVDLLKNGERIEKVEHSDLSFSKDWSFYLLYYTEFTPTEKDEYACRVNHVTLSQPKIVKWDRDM

| Substance | retention time | FcRn-affinity column retention time |
| --- | --- | --- |
| anti-HER2 antibody, symmetric mutation K288E | 45.2 min | – |
| anti-HER2 antibody, symmetric mutation E430H | 46.4 min | – |
| anti-HER2 antibody, symmetric mutation N434H | 52 min | – |
| anti-HER2 antibody, symmetric mutation Q311H | 46.3 min | – |
| anti-HER2 antibody, symmetric mutation K290H | 46.2 min | – |
| IgG1 Fc-region with L234A/L235A/P329G and symmetric Y436A | – | 41.3 min |
| anti-HER2 antibody, symmetric mutation T256H | 46 min | – |
| anti-HER2 antibody, symmetric mutation K317H | 46.3 min | – |
| anti-HER2 antibody, symmetric mutation R255D | 41.4 min | – |
| anti-HER2 antibody, symmetric mutation L309H | 45.5 min | – |
